17 sequences from the DeepSol protein solubility set can be followed below.

This series can be described thus: soluble on expression in E. coli; label from the status in PepcDB or PDB records.
As for “MEKNRSAFQQNQQASNQPFNQDQNQYYQDPNQQQFNQSGFDPNQQQFNQPGFDPNQQYYQDPNQQQFNQAGFDQNQQYYQDPNQQQFNQPGFDPNQQYYQDPNQQQFNQAGFDQNQYYQDPNQQQFNQSGFDQNQYYQDPNQQQFNQPSFDLNNQQFNQPGFNQSPAFEITPQEQKAEQEMFGEEPPQVVREIHELPFEKIRSFLQSDFDSYNFRLNSLKSKLDNALYSLDKTIQNTNENTANLEAIRHNLEQKIQNQSKQLRTNFDTQKLDDKINELEIRMQKLTRNFESLSELSKHNSYPNYYEKLLPNGGDSMTNVFEKALMMNLLRTTLPPQPQVQYYPQPYPYIRPYYDEPIYAGFRRRGYRDDFYE”, the “soluble on expression in E. coli” value is recorded as “soluble”. To “MGSSHHHHHHSSGLVPRGSHMEEEMMILGVDGGSTKTLAIVFDERSERIMGVGISGPSNFTNAPRETAESNISDAVRKACSEAGTDLDGIGIRVFGLAGIGDSREATELGKDIVRSIVGHADVYSDGLGAYKFANLNDDGVVFAPGTGSVGFIKNGSDPERFGGWGWFIGDEASASWMAKQAILFAEREHDGIAETGFLDVVRRYFGMDLYETVYAISKEKIAKRVVAALAPQVSAMARSGNRYAISIFEESSSYIADLLNAKSRIFGRSGKYSVLGGTMLAGDFYRDMIRKKSSVDVSIYYGYQVAIGDVLIGIEKKGSISVDLRNKMIDQLNSILENKKEDIKKFLFLDSVPTS” belongs “soluble”. To “SGAVTDDEVIRKRLLIDGDGAGDDRRINLLVKSFIKWCNSGSQEEGYSQYQRMLSTLSQCEFSMGKTLLVYDMNLREMENYEKIYKEIECSIAGAHEKIAECKKQILQAKRIRKNRQEYDALAKVIQHHPDRHETLKELEALGKELEHLSHIKESVEDKLELRRKQFHVLLSTIHELQQTLENDEKLSEVEEAQEASMETDPKP” belongs “soluble”.

Take “MEDVFKGIEKEIIKIYKIPERKGRFSNFKFKNKEINELIDALGFKLYLHQVKALKYLYNKKDVVVTTSTASGKSEIFRLAIFDNFLSNPDDRYLLIYPTRALINNQYEKFSMENELFYKITNKRVKAEILTGDVGLEKRREILKDKPNVLFTTPDMLHYQILKNHNNYLWLLKNLKLLVVDELHVYRGVFGTNMVYVFKRLLKLLKRLNNNLQILCLSATLKNPKEFVKLLFNRDFEVVD”: the “soluble on expression in E. coli” value is listed as “not soluble”. Take “MSLGKLFGTDGIRGVTNTELQPEFALKIGKAIGTYFGKGARILIGRDVRAGGDMLLKAVESGLLSSGVLVYEAGMAPTPAFQYGVKALGYDGGVIITASHNPAEYNGIKVLSPHGIEISREDEDKIEDIYFNSRFHVVEWNGLVNDVKREDKVIETYLRGILSHVDTEKIKSKKYKVLIDPANSVGTLVTPIVARELGCKVFTINGNLDPLFSARTPEPTFESLTESAKVAKQLGVDLAVAHDGDADRAIFIDSMGRVQWGDRSGTLLSYWASVKAPNLPRRIFTAVSSSSLVEEYLKKYNIEVKWTKVGSIDIAHMLFKEKGVAGFEENGGFMYPPHQTVRDGAMSFALMLDMMASENESSAELFNRLPVYYLVKTKVRVTEKSDIKKIYDEVMNKYGNYGNTVTIDGVKIIGSDFWLLVRKSGTEPIIRILVEAKDENKSKELAKELEKLVSELVEGHHHHHH”: the “soluble on expression in E. coli” value is recorded as “soluble”. As for “VETISFSFSEFEPGNNDLTLQGAAIITQSGVLQLTKINQNGMPAWDSTGRTLYTKPVHIWDMTTGTVASFETRFSFSIEQPYTRPLPADGLVFFMGPTKSKPAQGYGYLGVFNNSKQDNSYQTLAVEFDTFSNPWDPPQVPHIGIDVNSIRSIKTQPFQLDNGQVANVVIKYDASSKILLAVLVYPSSGAIYTIAEIVDVKQVLPEWVDVGLSGATGAQRDAAETHDVYSWSFHASLPETND”, the “soluble on expression in E. coli” value is “soluble”.

For “MSLKSTDIKIVEAKFSTEEVPFRTPLKFGGRVMDSSVLLNVEVIVETRNGKQGIGIGSMPAGNIWAWPSAVVSPEDSLKAMIEFLKEAVEIANICPEVAHPIDLMYHISAEYHFMAKKLSKRLGLAEEIPELAQLVASSPLDAAIHDGFGRANHINSYNGLSAEYMSHDLTEYLDDQFKGEYLDQYTLRDPKPTLPLYHLVGALDPITEADISERVDDGLPETLGEWIKADGLTHLKIKLSGDNMDWDISRVIAVENEAVKAQGERGQDKWVYSLDFNEKCENVDYVLDFLNKIREQTPAAFDRVQYIEQPTNRDLKANPENKMHEAAKIKPVVIDESLVDYESLLLSRELGYSGVALKACKGQTESLFLGAAAQKFDMFLCVQDLTCCGYSFLHSASLAARIPSIAAIEGNGRQYCPGPNKKWKRSYPGMFNITDGTVKTSEGHHHHHH”, the “soluble on expression in E. coli” value was “not soluble”. To “MGSDKIHHHHHHMLDLLNLPGIKPVDMRHESKGLVIVAEPETVEVPLCGGCNTLMHKHGTRKNKFMDTPLYMEPVRLEVQRPRFRCESCGKMSMPELSFLDDKRRATKRLVDVIRQQCLGTTFHALAEQTGVAVNTVKNIAHDLINELSQTVRYETPVIMGIDEVNLAGGYRCVITNLATNNVFDMLEHRTQEHLKPFFKALPDADKVEWVCTDMWRPFKRSFAQYLPNAKLVIDKFHVVKMASEALEVERKNYQAQLSKEDRIYVKKSIRWLTLKRPGNLTPAEQKALEVVKQAIPELAVAYDFKEAFFCIYDELDKQNAQNAFEAWENSLPDQGLVAFKKLAKTVHNHYDDIFAYWDAPFSITNGYTEGLNGLIKMSNRLGRGYGYPIIRAKTLYSKEARKVGSGIRAGHGKVEYGPHIPTLLKQAESGELD” belongs “not soluble”; to “MGYKPTQRDIVIIDFAPSKGYEIRKRRPALVMSKDSYNISTNLVIVCPITSLDKERPFLVPIYSEKLHTSDNAVSKVNTLQVYSLDYTEQAQRRIKYVDTLDEETFYEIAQKFLQNFSFAV”, “not soluble”; to “MGSDKIHHHHHHMKAVVIVKRAGQERPDLEYQTVPDPKPEPNELLVSVRAAGINRIDLHRSTAHGAPAAGKPLVAGLEMSGEVVAVGENVHDFRTGDKVYGMTTGSYAELATIDHRYALPVPPAFSFDQATAVATVYPTAHNALVTNGQFAAGKTVLIQGVSSAVGIATLQIAKAMGAKCVVGTGRPNANIGKLAEAGLDRFLLNGTDNIPAEIMAMTDGRGVDTIVDMVGGPTIADNLESVALAGRIVSVGWVGGTKGEIDLDTLARKRVTLVGVSFRTRTVEEKTELFAQFRRDVYPLFVNGTLVPYIAATYHLSEAAAAQDAMAEDKHFGKILLHP”, “not soluble”. Take “MGSDKIHHHHHHMDKILNLDSVDLYNKLYGLETLNPLVSVIDLNKATSSVDLIRFNYGIYALYLKLEKACDIKYGRQTYDYQEGTIVCFAPGQTAETNPTTDKVQVNAHGILFHPDLLRGTSLGKNIKKYTFFSYEVNEALHLSEEERSIVMDCLKIIRMELEHGVDKHSKTLLVNHIELLLNYCMRFYERQFITRGKTNRDVLTRFENLLDEYFESTLAEQDGLPTVKYFADKLCLSSNYFGDMFKKETGKSPQEYIQEKVIELAKERISGTADTVSQIAYSLGFQYPQHSCRLFKKRVGYTPSEYRAQIGLSTNL”: the “soluble on expression in E. coli” value is given as “not soluble”. In the case of “MVLLHHQPLGSHHATTSGGSLLERADLSHPIPENARKLAQLVEYDESRVELGTHSVFVREARPPGAHYSKATVIFLHGQSFSSSTWTENNLLRTFAALGYRAIAIDLPGSGQTRGAAIPQAEKPNFLMDFIETLGLKQVMIVCASMAAQYVLPLMTSTRHLSCVVLVAPSNTHEVVSPSSYTVPTLVVWGERDTSLGPTAAANLKNLPQVKLQKIPDAGHACYLHNPKCFENLCVNFFDLIRSYHH” it was “not soluble”.

As for “MGSDKIHHHHHHVLPHQNLSILIFFFTLDKDHFGNEMKNMYSHIIVGAGILGTSTAYHLAKQGANVLLVDRKEAGRATHVAAGIICPWMTQRRNKAWYRLANNGAHYYDKLIPELEALGETTTGYQKVGTIALHETSKIEKMQMIAENRFPEAPAIQRIERLTADQVRSMFPLIEFVEDALFVSGGARVDGRALRAAMERGAIKHAATILEADASLVVVDGHVQGVQIGQDIHYADQVILTAGVWVNELLEPLQTKLDIRAEKGQILHLDISNDQSKEWPVIMGQRGLYLVSIEDGKLALGSTHEKQLDYNLQPTVKGMYALLTRAIPVAPALEEANINEMRVGLRPYTSNSLPVIGRLANHPNVLIANGLGASGLTIGPYLGQELAKLALDQELEIDLNDYLLQ”, the “soluble on expression in E. coli” value is given as “not soluble”. Consider “GPGSMDKTKDSLIAVYDLGGGTFDISVLEIAGGVFEVKATNGDTHLGGEDFDLALSDYILEEFRKTSGIDLSKERMALQRVREAAEKAKCELSSAMETEVNLPFITANADGAQHIQMHISRSKFEGITQRLIERSIAPCKQCMKDAGVELKEINDVVLVGGMTRMPKVVEEVKKFFQKDPFRGVNPDEAVALGAATLGGVLRGKASDLILVDVTPLSLGTSVVGDVFTRMIPKNTTIPCMRSHIFTTVDDGQTAIKFKVFQGEREIASENQIRGEFDLSGIPPAPRGVPQIEVTFDIDANGICHVTAKDKATGKTQNITITANGGLSKEQIEQMIRDSEQHAEADRVKRELVEVRNNAETQLTTAERQLGEWKYVSDAEKENVKTLVAELRKAMENPNVAKDDLAAATDKLQKAVMECGRTEYQQAAAANSGQC”, for which the “soluble on expression in E. coli” value is on record as “not soluble”. In the case of “MAHHHHHHMSWAALVKSIKPEEATNFTAKPRVTVFAVDPSQNDAERQLQNPQHETAEVKLPSFSKGLLILDANAIIKGMDNFVSTADALVTTPQVIAEIKDRASRELMERLPHKVTVLDPTPEAVAAVVACAERTGDFGAMSRTDIRLCALALECCKVGGFLGEPIEPRPPQVNPRNDDKVQVMTEEMGEDGSNDERAKSETAHAQGASSSAMPGWGDWSDEAKETDGEGGAGAAEEDDGEGEWITPENIQDVQSGTRGAGRAFEAGMACVTSDYAMQNTLMHLGVPIVGTNGIHIRELRLWMMRCTACFTLVVDTTRQFCPECGSGDTLRRVNYVVNDQGEKKLYINFRKRISTRGTIYNLPRPRGGTHGTNRNLVLREDQLAHVIRGTTSSKVKAHQVMQNDDGALATFGEAPKLKKKNLADPRAYSSYHRYNVNEKKKVRAAHRK” it was “soluble”; in that of “MGSDKIHHHHHHMTEITTLSQFLTTAKTQFQVYDLGRRVQHIDMLAFHQIESLATPYPYPIQGHAQFAIVFWDASQQHFIWFLKLALDEQGLLSPAPRSQFIEMVLSALGQDPTQPLSNEQQEHLANNPFSFTPSQEKLAVFNALVRKQLGQHASVQYEFAMQYLSGQIAPSQWQHIGIQGIADVCVRANELDHEAKLLTSFDSAAIEVQIALCQCLEHVQISPLLANKILNKLTAAEPEHKAYFLRALASNSELSQKALAHLHQGSNLDANTLISIAGRNWTVLKQELSRSIYLEALALQPQTFFNQIFADIVAIPSLRNLLLGELRNPNRSIQLSQAIGGLFKAASK”, “not soluble”.

In the case of “MKELVVVAIGGNSIIKDNASQSIEHQAEAVKAVADTVLEMLASDYDIVLTHGNGPQVGLDLRRAEIAHKREGLPLTPLANCVADTQGGIGYLIQQALNNRLARHGEKKAVTVVTQVEVDKNDPGFAHPTKPIGAFFSDSQRDELQKANPDWCFVEDAGRGYRRVVASPEPKRIVEAPAIKALIQQGFVVIGAGGGGIPVVRTDAGDYQSVDAVIDKDLSTALLAREIHADILVITTGVEKVCIHFGKPQQQALDRVDIATMTRYMQEGHFPPGSMLPKIIASLTFLEQGGKEVIITTPECLPAALRGETGTHIIKT”, the “soluble on expression in E. coli” value was “soluble”.
